# B1: murine DS6 anti-CA6 monoclonal antibody (antibody, V domains shown)
# VH: QAYLQQSGAELVRSGASVKMSCKASGYTFTSYNMHWVKQTPGQGLEWIGYIYPGNGATNYNQKFKGKATLTADPSSSTAYMQISSLTSEDSAVYFCARGDSVPFAYWGQGTLVTVSA
# VL: QIVLTQSPAIMSASPGEKVTITCSAHSSVSFMHWFQQKPGTSPKLWIYSTSSLASGVPARFGGSGSGTSYSLTISRMEAEDAATYYCQQRSSFPLTFGAGTKLELKR
# notes: Murine monoclonal IgG purified from the hybridoma (ATCC PTA-4449); also called muDS6; DS6 antibody
# B2: chimeric DS6 antibody (antibody, V domains shown)
# VH: QAYLQQSGAELVRSGASVKMSCKASGYTFTSYNMHWVKQTPGQGLEWIGYIYPGNGATNYNQKFKGKATLTADPSSSTAYMQISSLTSEDSAVYFCARGDSVPFAYWGQGTLVTVSA
# VL: QIVLTQSPAIMSASPGEKVTITCSAHSSVSFMHWFQQKPGTSPKLWIYSTSSLASGVPARFGGSGSGTSYSLTISRMEAEDAATYYCQQRSSFPLTFGAGTKLELKR
# notes: also called chDS6
# B3: humanized DS6 antibody version 1.21 (antibody, V domains shown)
# VH: QAQLVQSGAEVVKPGASVKMSCKASGYTFTSYNMHWVKQTPGQGLEWIGYIYPGNGATNYNQKFQGKATLTADPSSSTAYMQISSLTSEDSAVYFCARGDSVPFAYWGQGTLVTVSA
# VL: EIVLTQSPATMSASPGERVTITCSAHSSVSFMHWFQQKPGTSPKLWIYSTSSLASGVPARFGGSGSGTSYSLTISSMEAEDAATYYCQQRSSFPLTFGAGTKLELKR
# notes: also called huDS6v1.21; huDS6 v1.21
# B4: humanized DS6 antibody version 1.01 (antibody, V domains shown)
# VH: QAQLVQSGAEVVKPGASVKMSCKASGYTFTSYNMHWVKQTPGQGLEWIGYIYPGNGATNYNQKFQGKATLTADTSSSTAYMQISSLTSEDSAVYFCARGDSVPFAYWGQGTLVTVSA
# VL: EIVLTQSPATMSASPGERVTITCSAHSSVSFMHWFQQKPGTSPKLWIYSTSSLASGVPARFGGSGSGTSYSLTISSMEAEDAATYYCQQRSSFPLTFGAGTKLELKR
# notes: also called huDS6v1.01; huDS6 v1.01
# B5: huDS6v1.01-SPDB-DM4 conjugate (antibody, human IgG1, V domains shown)
# VH: QAQLVQSGAEVVKPGASVKMSCKASGYTFTSYNMHWVKQTPGQGLEWIGYIYPGNGATNYNQKFQGKATLTADTSSSTAYMQISSLTSEDSAVYFCARGDSVPFAYWGQGTLVTVSA
# VL: EIVLTQSPATMSASPGERVTITCSAHSSVSFMHWFQQKPGTSPKLWIYSTSSLASGVPARFGGSGSGTSYSLTISSMEAEDAATYYCQQRSSFPLTFGAGTKLELKR
# modifications: DM4 maytansinoid via SPDB disulfide linker, 3.2 DM4 per antibody; sites not stated
# Legend:
# [1] = molecular target: T1, Muc1 mucin bearing the CA6 sialoglycotope (DS6 antigen), as expressed by CA6-positive human tumour cell lines (human, UniProt P15941 24-1255, CA6 epitope: sialic acid-dependent glycotope on sialylated O-linked carbohydrate chains; sites not stated); assay: flow cytometry competition; competitor 2 nM biotin-muDS6, streptavidin-DTAF (called apparent EC50 in paragraph 357)
# T1 construct: whole, on cells; Flow cytometry used whole cells; dot blots, immunoprecipitation and western blots used cell lysates; also called CA6 antigen; >250 kDa band
# [2] = molecular target: T1, Muc1 mucin bearing the CA6 …; assay: flow cytometry, direct binding to KB cells; apparent Kd
# Protocol: In the first set of experiments direct binding to a CA6-expressing cell line, KB, was measured.
# [3] = molecular target: T1, Muc1 mucin bearing the CA6 …; assay: cell-based or functional assay
binder,measurement,setting,value
B1,IC50,[1],1.9 nM
B2,IC50,[1],1.7 nM
B3,Kd,[2],0.85 nM
same,IC50,[1],1.9 nM
B4,Kd,[2],0.82 nM
same,IC50,[1],3 nM
B5,"in vitro cytotoxicity (MTT), WISH cells, IC50",[3],0.44 nM

# From patent US20160355605A1 (published 2016)
